The source of these data is paper PMC10786891, “Massively parallel profiling of RNA-targeting CRISPR-Cas13d”.

The labels stand for the following.
T1: EsCas13d, nuclease-dead (Eubacterium siraeum, UniProt B0MS50, R295A;H300A;R849A;H854A)
T1 sequence: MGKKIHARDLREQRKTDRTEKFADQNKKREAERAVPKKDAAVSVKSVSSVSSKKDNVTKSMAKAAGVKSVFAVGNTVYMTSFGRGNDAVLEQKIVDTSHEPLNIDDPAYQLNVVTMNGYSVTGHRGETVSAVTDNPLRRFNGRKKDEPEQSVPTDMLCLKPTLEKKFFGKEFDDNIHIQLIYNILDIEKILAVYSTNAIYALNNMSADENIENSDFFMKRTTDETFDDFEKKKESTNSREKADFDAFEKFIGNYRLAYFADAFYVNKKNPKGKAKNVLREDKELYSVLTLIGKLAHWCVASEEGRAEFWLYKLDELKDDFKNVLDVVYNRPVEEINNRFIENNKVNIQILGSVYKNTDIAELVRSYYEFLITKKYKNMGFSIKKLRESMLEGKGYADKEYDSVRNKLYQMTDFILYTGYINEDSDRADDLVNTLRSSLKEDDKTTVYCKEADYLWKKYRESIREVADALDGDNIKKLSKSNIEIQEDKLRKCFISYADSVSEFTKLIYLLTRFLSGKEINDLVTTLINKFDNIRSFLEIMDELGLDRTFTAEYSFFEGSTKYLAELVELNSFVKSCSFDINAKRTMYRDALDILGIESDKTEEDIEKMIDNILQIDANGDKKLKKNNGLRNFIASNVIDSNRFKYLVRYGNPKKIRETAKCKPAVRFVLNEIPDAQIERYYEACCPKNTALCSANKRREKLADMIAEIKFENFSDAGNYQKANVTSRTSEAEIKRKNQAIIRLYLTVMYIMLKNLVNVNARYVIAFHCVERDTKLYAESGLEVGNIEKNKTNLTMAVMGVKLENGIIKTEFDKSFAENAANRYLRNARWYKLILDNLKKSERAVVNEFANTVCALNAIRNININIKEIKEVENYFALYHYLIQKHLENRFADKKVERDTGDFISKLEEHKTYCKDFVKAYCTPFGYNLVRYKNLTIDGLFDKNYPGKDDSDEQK

B1: target 1 insC 3' of 5,insG 3' of 1 (mixed)
RNA 1: CACCCGUGCAAAAAUGCAGGGGUCUAAAACUGAGCGGAUAACCUCUCUAUGG
RNA 2: GGGAAUGGAUCCACAUCUACGAAUUCGUACCAUAGAGAGGUUAUCCGCCUCAGCCGAGAUCGGAAGAGCACACGU
B2: target 1 C7G,C22U (mixed)
RNA 1: CACCCGUGCAAAAAUGCAGGGGUCUAAAACUGAGCGGAUAACCUCUCUAUGG
RNA 2: GGGAAUGGAUCCACAUCUACGAAUUCGUAUCAUAGAGAGGUUAUGCGCUCACCGAGAUCGGAAGAGCACACGU
B3: target 1 insU 3' of 14,insG 3' of 14 (mixed)
RNA 1: CACCCGUGCAAAAAUGCAGGGGUCUAAAACUGAGCGGAUAACCUCUCUAUGG
RNA 2: GGGAAUGGAUCCACAUCUACGAAUUCGUACCAUAGAGAUGGGUUAUCCGCUCACCGAGAUCGGAAGAGCACACGU
B4: target 1 insU 3' of 17,insG 3' of 14 (mixed)
RNA 1: CACCCGUGCAAAAAUGCAGGGGUCUAAAACUGAGCGGAUAACCUCUCUAUGG
RNA 2: GGGAAUGGAUCCACAUCUACGAAUUCGUACCAUAGUAGAGGGUUAUCCGCUCACCGAGAUCGGAAGAGCACACGU
B5: target 1 C4G,U8G (mixed)
RNA 1: CACCCGUGCAAAAAUGCAGGGGUCUAAAACUGAGCGGAUAACCUCUCUAUGG
RNA 2: GGGAAUGGAUCCACAUCUACGAAUUCGUACCAUAGAGAGGUUAGCCGGUCACCGAGAUCGGAAGAGCACACGU
B6: target 1 insC 3' of 20,insU 3' of 15 (mixed)
RNA 1: CACCCGUGCAAAAAUGCAGGGGUCUAAAACUGAGCGGAUAACCUCUCUAUGG
RNA 2: GGGAAUGGAUCCACAUCUACGAAUUCGUACCACUAGAGUAGGUUAUCCGCUCACCGAGAUCGGAAGAGCACACGU
B7: target 1 insA 3' of 17,insG 3' of 6 (mixed)
RNA 1: CACCCGUGCAAAAAUGCAGGGGUCUAAAACUGAGCGGAUAACCUCUCUAUGG
RNA 2: GGGAAUGGAUCCACAUCUACGAAUUCGUACCAUAGAAGAGGUUAUCCGGCUCACCGAGAUCGGAAGAGCACACGU
B8: target 1 insC 3' of 5,insU 3' of 1 (mixed)
RNA 1: CACCCGUGCAAAAAUGCAGGGGUCUAAAACUGAGCGGAUAACCUCUCUAUGG
RNA 2: GGGAAUGGAUCCACAUCUACGAAUUCGUACCAUAGAGAGGUUAUCCGCCUCAUCCGAGAUCGGAAGAGCACACGU
B9: target 1 G5C,C7A (mixed)
RNA 1: CACCCGUGCAAAAAUGCAGGGGUCUAAAACUGAGCGGAUAACCUCUCUAUGG
RNA 2: GGGAAUGGAUCCACAUCUACGAAUUCGUACCAUAGAGAGGUUAUACCCUCACCGAGAUCGGAAGAGCACACGU
B10: target 1 C4A,A20U (mixed)
RNA 1: CACCCGUGCAAAAAUGCAGGGGUCUAAAACUGAGCGGAUAACCUCUCUAUGG
RNA 2: GGGAAUGGAUCCACAUCUACGAAUUCGUACCUUAGAGAGGUUAUCCGAUCACCGAGAUCGGAAGAGCACACGU
B11: target 1 C2A,C7A (mixed)
RNA 1: CACCCGUGCAAAAAUGCAGGGGUCUAAAACUGAGCGGAUAACCUCUCUAUGG
RNA 2: GGGAAUGGAUCCACAUCUACGAAUUCGUACCAUAGAGAGGUUAUACGCUAACCGAGAUCGGAAGAGCACACGU
B12: target 1 insU 3' of 4,insU 3' of 2 (mixed)
RNA 1: CACCCGUGCAAAAAUGCAGGGGUCUAAAACUGAGCGGAUAACCUCUCUAUGG
RNA 2: GGGAAUGGAUCCACAUCUACGAAUUCGUACCAUAGAGAGGUUAUCCGCUUCUACCGAGAUCGGAAGAGCACACGU
B13: target 1 insC 3' of 10 (mixed)
RNA 1: CACCCGUGCAAAAAUGCAGGGGUCUAAAACUGAGCGGAUAACCUCUCUAUGG
RNA 2: GGGAAUGGAUCCACAUCUACGAAUUCGUACCAUAGAGAGGUUCAUCCGCUCACCGAGAUCGGAAGAGCACACGU
B14: target 1 insA 3' of 17,insC 3' of 8 (mixed)
RNA 1: CACCCGUGCAAAAAUGCAGGGGUCUAAAACUGAGCGGAUAACCUCUCUAUGG
RNA 2: GGGAAUGGAUCCACAUCUACGAAUUCGUACCAUAGAAGAGGUUAUCCCGCUCACCGAGAUCGGAAGAGCACACGU
B15: target 1 C7G,A14U (mixed)
RNA 1: CACCCGUGCAAAAAUGCAGGGGUCUAAAACUGAGCGGAUAACCUCUCUAUGG
RNA 2: GGGAAUGGAUCCACAUCUACGAAUUCGUACCAUAGAGUGGUUAUGCGCUCACCGAGAUCGGAAGAGCACACGU
B16: target 1 insU 3' of 12,insC 3' of 8 (mixed)
RNA 1: CACCCGUGCAAAAAUGCAGGGGUCUAAAACUGAGCGGAUAACCUCUCUAUGG
RNA 2: GGGAAUGGAUCCACAUCUACGAAUUCGUACCAUAGAGAGGUUUAUCCCGCUCACCGAGAUCGGAAGAGCACACGU
B17: target 1 C4A,U10A (mixed)
RNA 1: CACCCGUGCAAAAAUGCAGGGGUCUAAAACUGAGCGGAUAACCUCUCUAUGG
RNA 2: GGGAAUGGAUCCACAUCUACGAAUUCGUACCAUAGAGAGGUAAUCCGAUCACCGAGAUCGGAAGAGCACACGU
B18: target 1 insA 3' of 13,insG 3' of 4 (mixed)
RNA 1: CACCCGUGCAAAAAUGCAGGGGUCUAAAACUGAGCGGAUAACCUCUCUAUGG
RNA 2: GGGAAUGGAUCCACAUCUACGAAUUCGUACCAUAGAGAGAGUUAUCCGCGUCACCGAGAUCGGAAGAGCACACGU
B19: target 1 insC 3' of 12,insC 3' of 5 (mixed)
RNA 1: CACCCGUGCAAAAAUGCAGGGGUCUAAAACUGAGCGGAUAACCUCUCUAUGG
RNA 2: GGGAAUGGAUCCACAUCUACGAAUUCGUACCAUAGAGAGGCUUAUCCGCCUCACCGAGAUCGGAAGAGCACACGU
B20: target 1 G5A,A9G (mixed)
RNA 1: CACCCGUGCAAAAAUGCAGGGGUCUAAAACUGAGCGGAUAACCUCUCUAUGG
RNA 2: GGGAAUGGAUCCACAUCUACGAAUUCGUACCAUAGAGAGGUUGUCCACUCACCGAGAUCGGAAGAGCACACGU
B21: target 1 del7 (mixed)
RNA 1: CACCCGUGCAAAAAUGCAGGGGUCUAAAACUGAGCGGAUAACCUCUCUAUGG
RNA 2: GGGAAUGGAUCCACAUCUACGAAUUCGUACCAUAGAGAGGUUAUCGCUCACCGAGAUCGGAAGAGCACACGU
B22: target 1 C2A,C7U (mixed)
RNA 1: CACCCGUGCAAAAAUGCAGGGGUCUAAAACUGAGCGGAUAACCUCUCUAUGG
RNA 2: GGGAAUGGAUCCACAUCUACGAAUUCGUACCAUAGAGAGGUUAUUCGCUAACCGAGAUCGGAAGAGCACACGU
B23: target 1 insU 3' of 7,insG 3' of 2 (mixed)
RNA 1: CACCCGUGCAAAAAUGCAGGGGUCUAAAACUGAGCGGAUAACCUCUCUAUGG
RNA 2: GGGAAUGGAUCCACAUCUACGAAUUCGUACCAUAGAGAGGUUAUCUCGCUCGACCGAGAUCGGAAGAGCACACGU
B24: target 1 C6U,G15A (mixed)
RNA 1: CACCCGUGCAAAAAUGCAGGGGUCUAAAACUGAGCGGAUAACCUCUCUAUGG
RNA 2: GGGAAUGGAUCCACAUCUACGAAUUCGUACCAUAGAAAGGUUAUCUGCUCACCGAGAUCGGAAGAGCACACGU
B25: target 1 insG 3' of 8,insC 3' of 8 (mixed)
RNA 1: CACCCGUGCAAAAAUGCAGGGGUCUAAAACUGAGCGGAUAACCUCUCUAUGG
RNA 2: GGGAAUGGAUCCACAUCUACGAAUUCGUACCAUAGAGAGGUUAUGCCCGCUCACCGAGAUCGGAAGAGCACACGU
B26: target 1 insA 3' of 17,insU 3' of 15 (mixed)
RNA 1: CACCCGUGCAAAAAUGCAGGGGUCUAAAACUGAGCGGAUAACCUCUCUAUGG
RNA 2: GGGAAUGGAUCCACAUCUACGAAUUCGUACCAUAGAAGUAGGUUAUCCGCUCACCGAGAUCGGAAGAGCACACGU
B27: target 1 A1C,U19G (mixed)
RNA 1: CACCCGUGCAAAAAUGCAGGGGUCUAAAACUGAGCGGAUAACCUCUCUAUGG
RNA 2: GGGAAUGGAUCCACAUCUACGAAUUCGUACCAGAGAGAGGUUAUCCGCUCCCCGAGAUCGGAAGAGCACACGU

The series concerns the target T1, EsCas13d, nuclease-dead. The series is described as follows: crRNA (strand 1, pre-loaded); Mg2+; 40 mM Tris-HCl pH 7.5, 150 mM NaCl, 6 mM MgCl2, 1 mM DTT, 0.1% Tween-20, 0.2 mg/ml BSA; 25 C; 10 min per concentration, then washed. The note with it: tags: His6-TwinStrep-SUMO cleaved; N-terminal SNAP kept (SNAP-Surface 488); label: 3' end held by stalled T7 RNA polymerase.
By Kd is commonly meant a measure of binding affinity in units of concentration. Read a low Kd as tighter binding. For B1, the affinity, expressed as Kd, was 8.4 ± 0.6 nM.

B2 showed a Kd of 13.7 ± 0.7 nM.

Consider B3, for which the Kd was found to be 44 ± 10 nM.

B4 came in with a Kd of 23 ± 5 nM.

Take B5: the affinity, expressed as Kd, was 5.52 ± 0.21 nM.

On to B6, for which binding was put at a Kd of 10 ± 0.7 nM.

In turn, B7 came in with a Kd of 19.4 ± 0.8 nM.

Regarding B8, the Kd is 9.61 ± 0.26 nM.

For the molecule B9, the Kd was 21.2 ± 1.4 nM.

Take B10: the Kd came to 21.1 ± 3.3 nM.

B11 yielded a Kd of 5.34 ± 0.16 nM.

In turn, B12 registered a Kd of 9.5 ± 0.4 nM.

Molecule B13 gave a dissociation constant Kd of 15.5 ± 0.9 nM.

Molecule B14 displayed a Kd of 18.6 ± 1.3 nM.

B15 returned a Kd of 66 ± 16 nM.

Turning to B16, the Kd was 19.5 ± 1 nM.

For the molecule B17, the dissociation constant Kd stood at 5.3 ± 0.4 nM.

The molecule B18 displayed an equilibrium dissociation constant (Kd) of 3.04 ± 0.19 nM.

Turning to B19, the affinity, expressed as Kd, was 13.4 ± 0.7 nM.

B20 registered an equilibrium dissociation constant (Kd) of 19.3 ± 1.1 nM.

B21 yielded a Kd of 8.01 ± 0.33 nM.

Molecule B22 displayed an equilibrium dissociation constant (Kd) of 5.2 ± 0.4 nM.

Regarding B23, the Kd worked out at 15.3 ± 1.2 nM.

Molecule B24 registered a Kd of 11.9 ± 0.5 nM.

Consider B25, for which the Kd worked out at 12.9 ± 0.5 nM.

For B26, the Kd came out at 12 ± 4 nM.

Take B27: the Kd is ~80 nM.
